Measured values as given in the supplement of paper PMC11246515.
± gives the standard deviation of the averaged measurements.

Assay: total protein half-life in vivo (active degradation + dilution); higher = more stable protein
[1] = E. coli NCM3722 delta-clpP delta-lon delta-hslV, growth: N-lim chemostat, doubling time 6 h
[2] = E. coli NCM3722 delta-clpP, growth: N-lim chemostat, doubling time 6 h
[3] = E. coli NCM3722 delta-hslV, growth: N-lim chemostat, doubling time 6 h
[4] = E. coli NCM3722 delta-lon, growth: N-lim chemostat, doubling time 6 h
[5] = E. coli NCM3722 delta-smpB, growth: N-lim chemostat, doubling time 6 h
[6] = wild type E. coli NCM3722, growth: C-lim chemostat, doubling time 3 h
[7] = wild type E. coli NCM3722, growth: C-lim chemostat, doubling time 6 h
[8] = wild type E. coli NCM3722, growth: C-lim chemostat, doubling time 12 h
[9] = wild type E. coli NCM3722, growth: N-lim chemostat, doubling time 6 h
[10] = wild type E. coli NCM3722, growth: N-lim chemostat, doubling time 12 h
[11] = wild type E. coli NCM3722, growth: P-lim chemostat, doubling time 6 h
[12] = wild type E. coli NCM3722, growth: P-lim chemostat, doubling time 12 h

Row | Sequence | total protein half-life in vivo [1] [h] | total protein half-life in vivo [2] [h] | total protein half-life in vivo [3] [h] | total protein half-life in vivo [4] [h] | total protein half-life in vivo [5] [h] | total protein half-life in vivo [6] [h] | total protein half-life in vivo [7] [h] | total protein half-life in vivo [8] [h] | total protein half-life in vivo [9] [h] | total protein half-life in vivo [10] [h] | total protein half-life in vivo [11] [h] | total protein half-life in vivo [12] [h]
1 | MANSSSRYSVLTAAHWGPMLVETDGETVFSSRGALATGMENSLQSAVRDQVHSNTRVRFPMVRKGFLASPENPQGIRGQDEFVRVSWDEALDLIHQQHKRIREAYGPASIFAGSYGWRSNGVLHKASTLLQRYMALAGGYTGHLGDYSTGAAQAIMPYVVGGSEVYQQQTSWPLVLEHSDVVVLWSANPLNTLKIAWNASDEQGLSYFSALRDSGKKLICIDPMRSETVDFFGDKMEWVAPHMGTDVALMLGIAHTLVENGWHDEAFLARCTTGYAVFASYLLGESDGIAKTAEWAAEICGVGAAKIRELAAIFHQNTTMLMAGWGMQRQQFGEQKHWMIVTLAAMLGQIGTPGGGFGLSYHFANGGNPTRRSAVLSSMQGSLPGGCDAVDKIPVARIVEALENPGGAYQHNGMNRHFPDIRFIWWAGGANFTHHQDTNRLIRAWQKPELVVISECFWTAAAKHADIVLPATTSFERNDLTMTGDYSNQHLVPMKQVVPPRYEARNDFDVFAELSERWEKGGYARFTEGKSELQWLETFYNVARQRGASQQVELPPFAEFWQANQLIEMPENPDSERFIRFADFCRDPLAHPLKTASGKIEIFSQRIADYGYPDCPGHPMWLEPDEWQGNAEPEQLQVLSAHPAHRLHSQLNYSSLRELYAVANREPVTIHPDDAQERGIQDGDTVRLWNARGQILAGAVISEGIKPGVICIHEGAWPDLDLTADGICKNGAVNVLTKDLPSSRLGNGCAGNTALAWLEKYNGPELTLTAFEPPASS | 4.73 ± 0.25 | 3.43 ± 0.21 | 3.62 ± 0.17 | 4.25 ± 0.41 | 3.293 ± 0.026 | 2.4 ± 0.26 | 4.57 ± 0.6 | 7.73 ± 0.2 | 3.56 ± 0.24 | 5.57 ± 0.67 | 3.55 ± 0.4 | 6.319 ± 0.0081
2 | METPQPDKTGMHILLKLASLVVILAGIHAAADIIVQLLLALFFAIVLNPLVTWFIRRGVQRPVAITIVVVVMLIALTALVGVLAASFNEFISMLPKFNKELTRKLFKLQEMLPFLNLHMSPERMLQRMDSEKVVTFTTALMTGLSGAMASVLLLVMTVVFMLFEVRHVPYKMRFALNNPQIHIAGLHRALKGVSHYLALKTLLSLWTGVIVWLGLELMGVQFALMWAVLAFLLNYVPNIGAVISAVPPMIQVLLFNGVYECILVGALFLVVHMVIGNILEPRMMGHRLGMSTMVVFLSLLIWGWLLGPVGMLLSVPLTSVCKIWMETTKGGSKLAILLGPGRPKSRLPG [P0AGM0] | 6.64 ± 0.097 |  |  |  | 5.16 |  | 7.02 | 11.5 ± 0.41 |  |  |  | 13.6
3 | MKFRLGGFEAIKSAYMAQVQYSMWVTRKDAWYFANYDPRMKREGLHYVVIERNEKYMASFDEMVPEFIEKMDEALAEIGFVFGEQWR |  | 2.75 |  |  |  |  |  |  |  |  |  | 
4 | MKSEVLSVKEKIGYGMGDAASHIIFDNVMLYMMFFYTDIFGIPAGFVGTMFLVARALDAISDPCMGLLADRTRSRWGKFRPWVLFGALPFGIVCVLAYSTPDLSMNGKMIYAAITYTLLTLLYTVVNIPYCALGGVITNDPTQRISLQSWRFVLATAGGMLSTVLMMPLVNLIGGDNKPLGFQGGIAVLSVVAFMMLAFCFFTTKERVEAPPTTTSMREDLRDIWQNDQWRIVGLLTIFNILAVCVRGGAMMYYVTWILGTPEVFVAFLTTYCVGNLIGSALAKPLTDWKCKVTIFWWTNALLAVISLAMFFVPMQASITMFVFIFVIGVLHQLVTPIQWVMMSDTVDYGEWCNGKRLTGISFAGTLFVLKLGLAFGGALIGWMLAYGGYDAAEKAQNSATISIIIALFTIVPAICYLLSAIIAKRYYSLTTHNLKTVMEQLAQGKRRCQQQFTSQEVQN | 3.79 ± 0.88 | 2.71 ± 0.12 | 2.34 ± 0.037 | 2.68 |  | 2.83 ± 0.12 | 4.26 ± 0.11 | 8.19 ± 1.7 | 2.823 ± 0.011 | 4.72 | 5.34 ± 0.062 | 9.79 ± 1.1
5 | MSHKPAHLLLVDDDPGLLKLLGLRLTSEGYSVVTAESGAEGLRVLNREKVDLVISDLRMDEMDGMQLFAEIQKVQPGMPVIILTAHGSIPDAVAATQQGVFSFLTKPVDKDALYQAIDDALEQSAPATDERWREAIVTRSPLMLRLLEQARLVAQSDVSVLINGQSGTGKEIFAQAIHNASPRNSKPFIAINCGALPEQLLESELFGHARGAFTGAVSNREGLFQAAEGGTLFLDEIGDMPAPLQVKLLRVLQERKVRPLGSNRDIDINVRIISATHRDLPKAMARGEFREDLYYRLNVVSLKIPALAERTEDIPLLANHLLRQAAERHKPFVRAFSTDAMKRLMTASWPGNVRQLVNVIEQCVALTSSPVISDALVEQALEGENTALPTFVEARNQFELNYLRKLLQITKGNVTHAARMAGRNRTEFYKLLSRHELDANDFKE [P0AFU4] | 6.81 ± 1.7 | 4.73 ± 0.42 | 4.48 ± 0.2 | 5 ± 0.17 | 4.45 ± 0.29 | 3.25 ± 0.19 | 5.86 ± 0.38 | 11 ± 2.4 | 4.26 ± 0.069 | 7.72 ± 0.09 | 5.4 ± 0.19 | 12 ± 0.29
6 | MLKARNCGWIRLLPLFMLSLPVQAELRCVANAVDIESFFSAATAEDKQQVEQAINSSVNLVPFGLSASNWKVHRGDLVVEGNIESNQKLIVLGNLTVKGNISTFSLSNPWVILGNVTATNIVADSPLLITGSINASGLVFIDSYYDNPSTIKGSINARGIFINDIIAPVVASSTNSEFMVRASDKHDTENVKKALMIINPDAYYWGLINDEDALKEIFKRSNIRMAGNVCNQMKKEALFRPKPSPELVQELQMLDEGKVAAFEGRDIATFDLAVMRTLPRLKGISANLRKQLINSNDEQTIESMARYMPDNEILELTDQQLGYQPVVLGLLDREPLSVEIMTRMSRLPDGVGPLNLALRENLPLDIVMTLAKRDWDMIIQELYKDAWLLPESIIDGYIRSDDSSIRQVGAGGQLTYNQAMQLANDSSNNVVTSLAFKLAEMKHHGQLLRMTPQESDKVAGYLYQKFENDDDLIRVLFLALPDNLQFNFVKRMEKKSPAYFCCRDMQVIHSDAALQRLLTRFNDPEGWSNLAKNQYLSTSMKQKIWQRALSHRKNNPKADSDAYETSADMILSELISHGEVDDQMLLNATALIRSDDWDFLESALISWDNLPAVVLKELQQNTPRNDIWAKFFLRQENSSRAQVDEALRVYYALDPDALAQLDVLAKQPDRIWWSTLAKSNLTFFKFGALNNRHTPPAVLAAEIDPEWWIVAMNNPRFPVDVLKARLKRDPLLALELVNPELDLVRQLALNGKTRAIREQAMRKLDELY | > 8 |  |  |  |  |  |  |  |  |  |  | 
7 | MSTTHNVPQGDLVLRTLAMPADTNANGDIFGGWLMSQMDIGGAILAKEIAHGRVVTVRVEGMTFLRPVAVGDVVCCYARCVQKGTTSVSINIEVWVKKVASEPIGQRYKATEALFKYVAVDPEGKPRALPVE [P0A8Z0] | 5.03 ± 0.4 | 5.16 ± 0.9 | 5.24 ± 0.38 | 5.86 ± 0.43 | 5 ± 0.31 | 2.93 ± 0.13 | 5.72 ± 0.64 | 11.1 ± 0.23 | 5.6 ± 0.096 | 10.1 ± 0.37 | 5.8 ± 0.5 | 13.3 ± 0.14
8 | MLTEQQRRELDWEKTDGLMPVIVQHAVSGEVLMLGYMNPEALDKTLESGKVTFFSRTKQRLWTKGETSGNFLNVVSIAPDCDNDTLLVLANPIGPTCHKGTSSCFGDTAHQWLFLYQLEQLLAERKSADPETSYTAKLYASGTKRIAQKVGEEGVETALAATVHDRFELTNEASDLMYHLLVLLQDQGLDLTTVIENLRKRHQ | 5.08 ± 0.17 | 4.38 ± 0.43 | 5.44 ± 1.4 | 4.24 ± 0.072 | 4.046 ± 0.0072 | 2.92 ± 0.14 | 5.63 ± 1 |  | 4.51 ± 0.3 | 6.795 ± 0.027 |  | 12.9 ± 3.1
9 | MGSQELQRKLGFWAVLAIAVGTTVGSGIFVSVGEVAKAAGTPWLTVLAFVIGGLIVIPQMCVYAELSTAYPENGADYVYLKNAGSRPLAFLSGWASFWANDAPSLSIMALAIVSNLGFLTPIDPLLGKFIAAGLIIAFMLLHLRSVEGGAAFQTLITIAKIIPFTIVIGLGIFWFKAENFAAPTTTAIGATGSFMALLAGISATSWSYTGMASICYMTGEIKNPGKTMPRALIGSCLLVLVLYTLLALVISGLMPFDKLANSETPISDALTWIPALGSTAGIFVAITAMIVILGSLSSCVMYQPRLEYAMAKDNLFFKCFGHVHPKYNTPDVSIILQGALGIFFIFVSDLTSLLGYFTLVMCFKNTLTFGSIIWCRKRDDYKPLWRTPAFGLMTTLAIASSLILVASTFVWAPIPGLICAVIVIATGLPAYAFWAKRSRQLNALS |  |  |  |  |  | 3.26 |  |  |  |  |  | 
